The text below walks through data of US20250352667A1.

Assay [1] concerns the target KEAP1 (wild-type full-length), His-tagged (human) (UniProt Q14145). The experiment in a line: AlphaScreen; 4.8 nM FLAG-NRF2, 150 nM His-KEAP1; Rep 1; control for I86V. On the technique in general: Bead proximity is the source of the signal in Alpha formats.
Assay [2] has the same target. Description: AlphaScreen; 38.4 nM FLAG-NRF2, 150 nM His-KEAP1; Rep 2; control for I86V.
The target is the same in assay [3]. The experiment in a line: AlphaScreen; 153.6 nM FLAG-NRF2, 150 nM His-KEAP1; Rep 1; control for I28V.
Assay [4] has the same target. The experiment in a line: AlphaScreen; 1228.8 nM FLAG-NRF2, 150 nM His-KEAP1; Rep 3; control for I86V.
For assay [5] the target is unchanged. Description: AlphaScreen; 19.2 nM FLAG-NRF2, 150 nM His-KEAP1; Repeat 2 (same value as in Table 26).
For assay [6] the target is unchanged. The experiment in a line: AlphaScreen; 38.4 nM FLAG-NRF2, 150 nM His-KEAP1; signal against NRF2 only; control for I86V.
The target is the same in assay [7]. Description: AlphaScreen; 1228.8 nM FLAG-NRF2, 150 nM His-KEAP1; signal against NRF2 only; control for I28V.
For assay [8] the target is unchanged. Description: AlphaScreen; FLAG-NRF2 wt isoform 1 2.4 nM, His-KEAP1 150 nM; Rep 2; positive control for Q75R.
Assay [9] shares this target. Description: AlphaScreen; FLAG-NRF2 wt isoform 1 38.4 nM, His-KEAP1 150 nM; Rep 1; positive control for Q75R.
Assay [10] shares this target. Description: AlphaScreen; FLAG-NRF2 wt isoform 1 9.6 nM, His-KEAP1 150 nM; Repeat 2; positive control for Q75R.
The target is the same in assay [11]. The experiment in a line: AlphaScreen; FLAG-NRF2 wt isoform 1 19.2 nM, His-KEAP1 150 nM; Repeat 1; positive control for Q75R.
For assay [12] the target is unchanged. The experiment in a line: AlphaScreen; FLAG-NRF2 wt isoform 1 38.4 nM, His-KEAP1 150 nM; Repeat 2; positive control for Q75R.
Assay [13] has the same target. Description: AlphaScreen; NRF2 wt isoform 1 9.6 nM, KEAP1 150 nM; signal against NRF2-only control; control for I86V.
For assay [14] the target is unchanged. The experiment in a line: AlphaScreen; NRF2 wt isoform 1 4.8 nM, KEAP1 150 nM; signal against NRF2-only control; control for Q75R.
Assay [15] shares this target. The experiment in a line: AlphaScreen; NRF2 wt isoform 1 19.2 nM, KEAP1 150 nM; signal against NRF2-only control; control for Q75R.
Assay [16] has the same target. The experiment in a line: AlphaScreen, all variants on one plate; lower condition (9.6 nM NRF2), KEAP1 150 nM; the reference itself.
Assay [17] has the same target. The experiment in a line: AlphaScreen; 307.2 nM FLAG-NRF2, 150 nM His-KEAP1; Rep 1.
Assay [18] has the same target. The experiment in a line: AlphaScreen; 614.4 nM FLAG-NRF2, 150 nM His-KEAP1; signal against NRF2 only.
For assay [19] the target is unchanged. The experiment in a line: AlphaScreen; 19.2 nM FLAG-NRF2, 150 nM His-KEAP1 (same value as in Table 27).
The target is the same in assay [20]. Description: AlphaScreen; 19.2 nM FLAG-NRF2, 150 nM His-KEAP1; Repeat 1 (same value as in Table 27).
The target is the same in assay [21]. Description: AlphaScreen; 19.2 nM FLAG-NRF2, 150 nM His-KEAP1; Repeat 2 (same value as in Table 27).
Assay [22] shares this target. The experiment in a line: AlphaScreen; mean over 9.6, 19.2 and 38.4 nM NRF2; 150 nM His-KEAP1; against wild-type NRF2 isoform 1 = 100%.
Assay [23] has the same target. The experiment in a line: AlphaScreen; FLAG-NRF2 Q75R 1228.8 nM, His-KEAP1 150 nM; Rep 1.
Assay [24] has the same target. Description: AlphaScreen; FLAG-NRF2 I86V 4.8 nM, His-KEAP1 150 nM; Rep 3.
Assay [25] has the same target. Description: AlphaScreen; FLAG-NRF2 I86V 307.2 nM, His-KEAP1 150 nM; Rep 3.
Assay [26] shares this target. Description: AlphaScreen; NRF2 I86V 9.6 nM, KEAP1 150 nM; relative to wild-type NRF2 isoform 1 (100 %).

Sequence of KEAP1 (wild-type full-length), His-tagged (human) (Q14145 2-624 limits assumed): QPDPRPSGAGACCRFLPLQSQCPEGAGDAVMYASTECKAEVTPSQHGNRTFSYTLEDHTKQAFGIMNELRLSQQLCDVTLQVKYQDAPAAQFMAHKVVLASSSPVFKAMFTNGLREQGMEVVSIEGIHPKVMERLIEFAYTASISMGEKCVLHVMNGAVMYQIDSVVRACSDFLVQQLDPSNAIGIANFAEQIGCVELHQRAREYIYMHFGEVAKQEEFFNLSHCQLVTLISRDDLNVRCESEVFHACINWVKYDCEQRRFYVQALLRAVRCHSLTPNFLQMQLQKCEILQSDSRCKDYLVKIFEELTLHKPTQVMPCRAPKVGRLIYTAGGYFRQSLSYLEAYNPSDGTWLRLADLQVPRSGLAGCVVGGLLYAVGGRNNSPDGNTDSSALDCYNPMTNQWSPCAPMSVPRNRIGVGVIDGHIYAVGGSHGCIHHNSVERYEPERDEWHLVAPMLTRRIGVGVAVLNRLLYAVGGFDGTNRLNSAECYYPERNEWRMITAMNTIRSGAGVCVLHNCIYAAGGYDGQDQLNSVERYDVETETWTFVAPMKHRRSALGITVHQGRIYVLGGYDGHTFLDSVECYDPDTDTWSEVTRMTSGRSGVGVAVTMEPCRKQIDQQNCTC

B1: NRF2 isoform 1 (wild-type full-length), FLAG-tagged (protein)
chain: MMDLELPPPGLPSQQDMDLIDILWRQDIDLGVSREVFDFSQRRKEYELEKQKKLEKERQEQLQKEQEKAFFAQLQLDEETGEFLPIQPAQHIQSETSGSANYSQVAHIPKSDALYFDDCMQLLAQTFPFVDDNEVSSATFQSLVPDIPGHIESPVFIATNQAQSPETSVAQVAPVDLDGMQQDIEQVWEELLSIPELQCLNIENDKLVETTMVPSPEAKLTEVDNYHFYSSIPSMEKEVGNCSPHFLNAFEDSFSSILSTEDPNQLTVNSLNSDATVNTDFGDEFYSAFIAEPSISNSMPSPATLSHSLSELLNGPIDVSDLSLCKAFNQNHPESTAEFNDSDSGISLNTSPSVASPEHSVESSSYGDTLLGLSDSEVEELDSAPGSVKQNGPKTPVHSSGDMVQPLSPSQGQSTHVHDAQCENTPEKELPVSPGHRKTPFTKDKHSSRLEAHLTRDELRAKALHIPFPVEKIINLPVVDFNEMMSKEQFNEAQLALIRDIRRRGKNKVAAQNCRKRKLENIVELEQDLDHLKDEKEKLLKEKGENDKSLHLLKKQLSTLYLEVFSMLRDEDGKPYSPSEYSLQQTRDGNVFLVPKSKKPDVKKN
As to B1, the A-counts in assay [1] came to 1810 A-counts; in assay [2], 2850 A-counts; in assay [3], 1930 A-counts; in [4], 2610 A-counts; in assay [5], 2000 A-counts. Moreover, the S/N in [6] came out at 3; in [7], 1; in assay [13] it was 3.6; in assay [14] it was 2.5; in assay [15] it was 3.4. The A-counts (NRF2 plus KEAP1) was determined as 429 A-counts in assay [8]; 1480 A-counts in assay [9]; 900 A-counts in [10]; 1360 A-counts in assay [11]; 1450 A-counts in [12]. Further, the % Disruption in Binding in [16] turned out to be 0%.

B2: NRF2 isoform 1 (I28V full-length), FLAG-tagged (protein)
chain: MMDLELPPPGLPSQQDMDLIDILWRQDVDLGVSREVFDFSQRRKEYELEKQKKLEKERQEQLQKEQEKAFFAQLQLDEETGEFLPIQPAQHIQSETSGSANYSQVAHIPKSDALYFDDCMQLLAQTFPFVDDNEVSSATFQSLVPDIPGHIESPVFIATNQAQSPETSVAQVAPVDLDGMQQDIEQVWEELLSIPELQCLNIENDKLVETTMVPSPEAKLTEVDNYHFYSSIPSMEKEVGNCSPHFLNAFEDSFSSILSTEDPNQLTVNSLNSDATVNTDFGDEFYSAFIAEPSISNSMPSPATLSHSLSELLNGPIDVSDLSLCKAFNQNHPESTAEFNDSDSGISLNTSPSVASPEHSVESSSYGDTLLGLSDSEVEELDSAPGSVKQNGPKTPVHSSGDMVQPLSPSQGQSTHVHDAQCENTPEKELPVSPGHRKTPFTKDKHSSRLEAHLTRDELRAKALHIPFPVEKIINLPVVDFNEMMSKEQFNEAQLALIRDIRRRGKNKVAAQNCRKRKLENIVELEQDLDHLKDEKEKLLKEKGENDKSLHLLKKQLSTLYLEVFSMLRDEDGKPYSPSEYSLQQTRDGNVFLVPKSKKPDVKKN
For B2, the A-counts in assay [17] was 1310 A-counts; in [20], 1730 A-counts; in [21] it was 1700 A-counts. Moreover, the S/N was 1 in assay [18] and 3.2 in assay [19]. The same molecule had an Average Binding in assay [22] of 69.8%.

B3: NRF2 isoform 1 (Q75R full-length), FLAG-tagged (protein)
chain: MMDLELPPPGLPSQQDMDLIDILWRQDIDLGVSREVFDFSQRRKEYELEKQKKLEKERQEQLQKEQEKAFFAQLRLDEETGEFLPIQPAQHIQSETSGSANYSQVAHIPKSDALYFDDCMQLLAQTFPFVDDNEVSSATFQSLVPDIPGHIESPVFIATNQAQSPETSVAQVAPVDLDGMQQDIEQVWEELLSIPELQCLNIENDKLVETTMVPSPEAKLTEVDNYHFYSSIPSMEKEVGNCSPHFLNAFEDSFSSILSTEDPNQLTVNSLNSDATVNTDFGDEFYSAFIAEPSISNSMPSPATLSHSLSELLNGPIDVSDLSLCKAFNQNHPESTAEFNDSDSGISLNTSPSVASPEHSVESSSYGDTLLGLSDSEVEELDSAPGSVKQNGPKTPVHSSGDMVQPLSPSQGQSTHVHDAQCENTPEKELPVSPGHRKTPFTKDKHSSRLEAHLTRDELRAKALHIPFPVEKIINLPVVDFNEMMSKEQFNEAQLALIRDIRRRGKNKVAAQNCRKRKLENIVELEQDLDHLKDEKEKLLKEKGENDKSLHLLKKQLSTLYLEVFSMLRDEDGKPYSPSEYSLQQTRDGNVFLVPKSKKPDVKKN
On to B3, for which the A-counts (NRF2 plus KEAP1) in assay [23] was 705 A-counts.

B4: NRF2 isoform 1 (I86V full-length), FLAG-tagged (protein)
chain: MMDLELPPPGLPSQQDMDLIDILWRQDIDLGVSREVFDFSQRRKEYELEKQKKLEKERQEQLQKEQEKAFFAQLQLDEETGEFLPVQPAQHIQSETSGSANYSQVAHIPKSDALYFDDCMQLLAQTFPFVDDNEVSSATFQSLVPDIPGHIESPVFIATNQAQSPETSVAQVAPVDLDGMQQDIEQVWEELLSIPELQCLNIENDKLVETTMVPSPEAKLTEVDNYHFYSSIPSMEKEVGNCSPHFLNAFEDSFSSILSTEDPNQLTVNSLNSDATVNTDFGDEFYSAFIAEPSISNSMPSPATLSHSLSELLNGPIDVSDLSLCKAFNQNHPESTAEFNDSDSGISLNTSPSVASPEHSVESSSYGDTLLGLSDSEVEELDSAPGSVKQNGPKTPVHSSGDMVQPLSPSQGQSTHVHDAQCENTPEKELPVSPGHRKTPFTKDKHSSRLEAHLTRDELRAKALHIPFPVEKIINLPVVDFNEMMSKEQFNEAQLALIRDIRRRGKNKVAAQNCRKRKLENIVELEQDLDHLKDEKEKLLKEKGENDKSLHLLKKQLSTLYLEVFSMLRDEDGKPYSPSEYSLQQTRDGNVFLVPKSKKPDVKKN
For B4, the A-counts (NRF2 plus KEAP1) in [24] turned out to be 2180 A-counts; in assay [25], 2140 A-counts. Also, in assay [26], the Binding Percentage turned out to be 99.1%.
